Target: T1, N末端FLAG−tag付加型ヒトROBO4細胞外領域ドメイン欠損体 hROBO4−225 (human, UniProt Q8WZ75 225-1007)
T1 construct: On HEK293 cells; also called pCI−FLAG−hROBO4−225; pCI−hROBO4−225
T1 sequence: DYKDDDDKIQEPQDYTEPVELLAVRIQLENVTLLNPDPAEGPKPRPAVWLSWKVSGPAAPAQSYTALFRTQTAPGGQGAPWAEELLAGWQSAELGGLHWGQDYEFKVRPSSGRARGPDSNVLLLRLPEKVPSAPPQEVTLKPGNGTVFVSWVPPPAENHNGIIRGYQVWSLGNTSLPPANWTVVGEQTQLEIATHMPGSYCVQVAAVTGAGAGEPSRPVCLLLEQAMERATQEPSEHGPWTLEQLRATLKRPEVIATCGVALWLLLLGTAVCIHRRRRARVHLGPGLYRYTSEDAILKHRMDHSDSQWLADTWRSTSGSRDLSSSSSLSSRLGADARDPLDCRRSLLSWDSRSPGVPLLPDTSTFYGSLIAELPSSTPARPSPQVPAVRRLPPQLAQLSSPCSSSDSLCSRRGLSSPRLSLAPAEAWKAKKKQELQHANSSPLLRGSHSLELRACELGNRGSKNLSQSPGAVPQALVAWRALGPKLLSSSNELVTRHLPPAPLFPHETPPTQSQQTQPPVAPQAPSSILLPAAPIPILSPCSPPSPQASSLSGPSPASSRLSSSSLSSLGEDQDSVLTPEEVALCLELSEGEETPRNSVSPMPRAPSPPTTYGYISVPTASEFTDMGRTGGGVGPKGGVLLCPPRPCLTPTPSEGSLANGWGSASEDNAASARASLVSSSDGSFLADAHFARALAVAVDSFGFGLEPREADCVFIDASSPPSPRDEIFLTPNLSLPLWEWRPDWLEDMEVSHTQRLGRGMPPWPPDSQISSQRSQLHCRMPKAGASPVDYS
Experiment: flow cytometry, transfected HEK293 cells

- binding result: no binding (tested: 10 μg/mL)
B1: 抗ROBO4マウスモノクローナル抗体 MAb1 (antibody, V domains shown)
VH: EVQLVESGGGLVKPGGSLKLSCAASGFTFSTYAMSWVRQTPEKRLEWVATISNGGTYTYYPDSVKGRFTISRDNAENTLYLQMSSLRSEDTAMYFCARLIYYDYLDYWGHGTTLTVSS
VL: DAVMTQTPLSLPVSLGDQASISCRSSQSLENSNGNTYLNWYFQKPGQSPQLLIYRVSNRFSGVLDRFSGSGSGTDFTLKISRVEAEDFGVYFCLQVTHVPWTFGGGTKLEIKR
notes: Mouse IgG1 (gamma 1) / kappa from a hybridoma; The constant regions are not in the listing; also called MAb1

From patent JP2014141434A (dated 2014)
